Laboratory results from US20100260668A1 (published 2010).

Columns and labels:
[1] = target: CD22/FC (Siglec-2 ECD/FC chimera) (UniProt P20273 20-687); test: Direct Bind ELISA, antigen on plate
Method: (§1) Enzyme Linked Immunosorbent Assays to screen for antibodies that bind a desired target antigen were performed as follows. […] Plates were washed four times with PBS containing 0.02% Tween 20. Plates were blocked by the addition of 300 μL/well blocking solution (non-fat dry milk powder, various retail suppliers, diluted to 2% in PBS) for ½ hour at room temperature. Plates were washed four times after blocking with PBS containing 0.02% Tween 20.
(§2) Alternatively, one hundred microliters per well of 10 μg/ml of Histidine (His) tagged desired target antigen (R&D Systems, Minneapolis, Minn.) was added to ELISA plates coated with monoclonal mouse anti-polyHistidine antibody as described above and incubated for 1 hour at room temperature. Wells were washed four times with PBS containing 0.02% Tween 20.
(§3) One hundred microliters of antibody or DVD-Ig preparations diluted in blocking solution as described above was added to the desired target antigen plate or desired target antigen/FC fusion plate or the anti-polyHistidine antibody/His tagged desired target antigen plate prepared as described above and incubated for 1 hour at room temperature. Wells are washed four times with PBS containing 0.02% Tween 20.

[2] = target: T1, CD40/FC (CD40 ECD/FC chimera-His tag) (UniProt P25942 21-193, limits assumed); test: Direct Bind ELISA, antigen on plate; C-terminal VD
T1 construct: extracellular domain; Bought reagent
Method: as §1, §2, §3

[3] = target: T1, CD40/FC (CD40 ECD/FC chimera-His tag); test: Direct Bind ELISA, antigen on plate; N-terminal VD
Method: as §1, §2, §3

[4] = target: T1, CD40/FC (CD40 ECD/FC chimera-His tag); test: Direct Bind ELISA, antigen on plate
Method: as §1, §2, §3

T1 sequence (P25942 21-193 limits assumed, change not shown): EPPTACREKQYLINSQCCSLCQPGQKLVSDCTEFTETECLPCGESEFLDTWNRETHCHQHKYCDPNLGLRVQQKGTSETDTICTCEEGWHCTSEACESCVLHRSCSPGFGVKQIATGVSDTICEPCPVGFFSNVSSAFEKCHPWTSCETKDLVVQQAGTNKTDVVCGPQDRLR

B1: AB008 (anti-CD-22 parent antibody) (antibody, IgG1, V domains shown)
VH: QVQLVQSGAEVKKPGSSVKVSCKASGYTFTSYWLHWVRQAPGQGLEWIGYINPRNDYTEYNQNFKDKATITADESTNTAYMELSSLRSEDTAFYFCARRDITTFYWGQGTTVTVSS
VL: DIQLTQSPSSLSASVGDRVTMSCKSSQSVLYSANHKNYLAWYQQKPGKAPKLLIYWASTRESGVPSRFSGSGSGTDFTFTISSLQPEDIATYYCHQYLSSWTFGGGTKLEIKR
notes: HC vector V1 (wild-type hIgG1 constant), LC vector V2 (kappa constant); also called AB008VH; AB008VL
EC50 [1]: 3.44 nM

B2: DVD009 (CD-20 and CD-40 DVD-Ig) (bispecific antibody, IgG1)
VH: QVQLQQPGAELVKPGASVKMSCKASGYTFTSYNMHWVKQTPGRGLEWIGAIYPGNGDTSYNQKFKGKATLTADKSSSTAYMQLSSLTSEDSAVYYCARSTYYGGDWYFNVWGAGTTVTVSAASTKGPQVQLVESGGGVVQPGRSLRLSCAASGFTFSSYGMHWVRQAPGKGLEWVAVISYEESNRYHADSVKGRFTISRDNSKITLYLQMNSLRTEDTAVYYCARDGGIAAPGPDYWGQGTLVTVSS
VL: QIVLSQSPAILSPSPGEKVTMTCRASSSVSYIHWFQQKPGSSPKPWIYATSNLASGVPVRFSGSGSGTSYSLTISRVEAEDAATYYCQQWTSNPPTFGGGTKLEIKRTVAAPDIVMTQSPLSLTVTPGEPASISCRSSQSLLYSNGYNYLDWYLQKPGQSPQVLISLGSNRASGVPDRFSGSGSGTDFTLKISRVEAEDVGVYYCMQARQTPFTFGPGTKVDIRR
notes: Outer AB001, inner AB009; HC vector V1 (wild-type hIgG1 constant), LC vector V2 (kappa constant); also called DVD009H; DVD009L
EC50 [2]: 3.55 nM

B3: DVD010 (CD-40 and CD-20 DVD-Ig) (bispecific antibody, IgG1)
VH: QVQLVESGGGVVQPGRSLRLSCAASGFTFSSYGMHWVRQAPGKGLEWVAVISYEESNRYHADSVKGRFTISRDNSKITLYLQMNSLRTEDTAVYYCARDGGIAAPGPDYWGQGTLVTVSSASTKGPQVQLQQPGAELVKPGASVKMSCKASGYTFTSYNMHWVKQTPGRGLEWIGAIYPGNGDTSYNQKFKGKATLTADKSSSTAYMQLSSLTSEDSAVYYCARSTYYGGDWYFNVWGAGTTVTVSA
VL: DIVMTQSPLSLTVTPGEPASISCRSSQSLLYSNGYNYLDWYLQKPGQSPQVLISLGSNRASGVPDRFSGSGSGTDFTLKISRVEAEDVGVYYCMQARQTPFTFGPGTKVDIRRTVAAPQIVLSQSPAILSPSPGEKVTMTCRASSSVSYIHWFQQKPGSSPKPWIYATSNLASGVPVRFSGSGSGTSYSLTISRVEAEDAATYYCQQWTSNPPTFGGGTKLEIKR
notes: Outer AB009, inner AB001; HC vector V1 (wild-type hIgG1 constant), LC vector V2 (kappa constant); also called DVD010H; DVD010L
EC50 [3]: 0.82 nM

B4: AB009 (anti-CD-40 parent antibody) (antibody, IgG1, V domains shown)
VH: QVQLVESGGGVVQPGRSLRLSCAASGFTFSSYGMHWVRQAPGKGLEWVAVISYEESNRYHADSVKGRFTISRDNSKITLYLQMNSLRTEDTAVYYCARDGGIAAPGPDYWGQGTLVTVSS
VL: DIVMTQSPLSLTVTPGEPASISCRSSQSLLYSNGYNYLDWYLQKPGQSPQVLISLGSNRASGVPDRFSGSGSGTDFTLKISRVEAEDVGVYYCMQARQTPFTFGPGTKVDIRR
notes: HC vector V1 (wild-type hIgG1 constant), LC vector V2 (kappa constant); also called AB009VH; AB009VL
EC50 [4]: 0.99 nM
